Test [1] deals with monkey gonadotropin-releasing hormone (GnRH) receptor (monkey). The test can be described thus: whole cell radioligand binding, eight of the 96 neoR CHO-K1 clones screened.
For test [2] the target is unchanged. The test can be described thus: whole cell radioligand binding, best CHO-K1 clone expressing the monkey GnRH receptor.
Test [3] shares this target. The test can be described thus: cell-based or functional assay.
For test [4], the system named is monkey GnRH receptor. The test can be described thus: Phosphoinositide (PI) turnover assay in CHO-K1 cells stably expressing the monkey GnRH receptor. The test is classed as cell-based. The note with it: monkey GnRHR-CHO-K1 cells, 37° C., 1 hour, FIG. 7; read-out: EC50 of GnRH-stimulated PI turnover. The procedure:
The ORF of the monkey GnRH receptor was subcloned into a polycistronic expression vector pIRES1.neo (Clontech Laboratories, Palo Alto, Calif.) to generate cells that stably express these receptors. In this vector, the cloned receptor cDNA and the neo gene were transcribed into one mRNA. The plasmid DNA of pIRES1.neo-mkGnRHR was transfected into CHO-K1 cells using the method of lipofectin. Transfection was carried out for overnight and the cells were split 48 hours later. G418 at 1 mg/ml was added 24 hours after splitting, and its concentration was increased to 2 mg/ml in 2-3 days. After 10 days selection by G418, colonies were picked and transferred to 24-well plates. The monkey GnRH receptor expression clones were screened by the whole cell binding assay using a radiolabeled peptide agonist of GnRH, 5-(^125Iodo-Tyr)-Buserelin (Woods Assay, Portland, Oreg.). […] After single cell isolation, the membrane from this clone was prepared, and the membrane binding assay was performed using ^125I-buserelin. […] The GnRH-stimulated PI turnover was also performed.
CHO-K1 cells stably expressing the monkey GnRH receptor are functionally coupled to phospholipase C. […] The eluate was then counted in a scintillation counter.

Test [5] relates to monkey GnRH receptor. The test can be described thus: Aequorin bioluminescence assay in CHO-K1 cells stably co-expressing the monkey GnRH receptor and apo-aequorin. The test is classed as cell-based. Particulars: CHO-K1 cells co-expressing monkey GnRHR and apo-aequorin; P1/(P1+P2) response. The procedure:
To construct this dual stable cell line, the 600 bp aeq gene was cut out by EcoRI and KpnI from pcDNA3.aeq, and inserted into pIRES1hyg (Clontech Laboratories, Palo Alto, Calif.) at BamHI that was blunt-ended. The positive clones were identified by colony-hybridization using the probe of aeq. The new construct that contained aeq and hyg was transfected into monkey GnRHR-CHO-K1 cells (as Example 5). The transfectants were selected by 600 μg/ml hygromycin (Boehringer Mannheim, Indianapolis, Ind.) for 10 days, and 480 hyg^r colonies were transferred into 96-well plates. These clones were assayed for aequorin by the aequorin bioluminescence assay as described in Example 7, and many positive clones were identified. […] This clone was single cell isolated, and used for the functional evaluation of the monkey GnRH receptor by the aequorin assay.
The aequorin assay has been widely used to monitor the changes in the cytosolic Ca^2+ concentration caused by the activation of the G-protein coupled receptors. […] The plate was read immediately in a Bioluminomitor (Lumino Skan RS) for 30 seconds. […] The remaining unreacted aequorin was determined by lysing the cells with 0.1% Triton X-100 (Sigma, St. Louis, Mo.). […] The percentage of aequorin which responded to GnRH challenge was calculated as P1/(P1+P2). […]

Broadly, the EC50 is the concentration that produces a half-maximal response.

Molecule 5-(125Iodo-Tyr)-Buserelin (peptide) displayed a specific binding, fold above the non-specific binding in test [1] of 3 fold. Further, in test [2], the fold above the background was 5 fold and the specific binding activity was determined as 645 cpm.

B1: Gonadotropin-releasing hormone (peptide)
peptide: QHWSYGLRPGGKRDAENLIDSFQEIVKEVGQLAETQRFECTTHQPRSPLRDLKGALESLIEEETGQKKI
notes: neuronal decapeptide hormone released from hypothalamus; obtained from a vendor and used as agonist
On to B1, for which, in test [3], the GnRH-stimulated PI turnover, EC50 was 0.43 nM; the aequorin bioluminescence assay, AUC for P1 amounted to 1290; the aequorin bioluminescence assay, EC50 of GnRH turned out to be 2 nM; the aequorin bioluminescence assay, P1/(P1+P2) ratio worked out at 71%. In the test on monkey GnRH receptor [4], the 50% effective concentration (EC50) was found to be 0.43 nM. Further, in the test on monkey GnRH receptor [5], the EC50 turned out to be 2 nM.

Values taken from US6380375B1, “DNA encoding monkey gonadotropin releasing hormone receptor” (Merck & Co., Inc., priority 1999, dated 2002).
